Results as given in paper PMC9482650, “Quantitative fragmentomics allow affinity mapping of interactomes” (Nature Communications, 2022).

Tests used:
Test in all cases: holdup assay
Parameters in all cases: key: below the threshold = too weak to quantify, mostly under pKd 3.1 to 4
[1] = biological target: T1, HTRA4, P83105
T1 sequence (P83105 378-476, limits assumed, looked up): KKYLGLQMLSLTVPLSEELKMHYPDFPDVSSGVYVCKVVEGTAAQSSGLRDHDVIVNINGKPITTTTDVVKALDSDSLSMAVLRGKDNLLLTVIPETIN

[2] = biological target: MAGI2_2, Q86UL8
[3] = biological target: T2, TX1BP3, O14907
T2 sequence (O14907 10-122, limits assumed, looked up): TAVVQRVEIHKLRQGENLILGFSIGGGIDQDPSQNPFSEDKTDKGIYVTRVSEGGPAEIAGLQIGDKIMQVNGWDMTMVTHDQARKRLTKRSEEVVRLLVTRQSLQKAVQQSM

[4] = biological target: T3, RAPGEF6, Q8TEU7
T3 sequence (Q8TEU7 525-625, limits assumed, looked up): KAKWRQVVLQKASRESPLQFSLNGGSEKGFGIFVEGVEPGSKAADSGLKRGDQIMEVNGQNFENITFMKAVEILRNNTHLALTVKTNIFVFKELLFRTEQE

[5] = biological target: LIMK2, P53671
[6] = biological target: T4, APBA1_1, Q02410
T4 sequence (Q02410 651-752, limits assumed, looked up): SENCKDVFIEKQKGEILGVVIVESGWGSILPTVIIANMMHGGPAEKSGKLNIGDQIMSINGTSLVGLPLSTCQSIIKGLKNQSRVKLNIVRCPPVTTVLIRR

[7] = biological target: T5, SNTA1, Q13424
T5 sequence (Q13424 82-180, limits assumed, looked up): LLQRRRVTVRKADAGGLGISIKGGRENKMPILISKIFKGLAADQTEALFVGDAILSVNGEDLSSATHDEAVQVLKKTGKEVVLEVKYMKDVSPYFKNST

[8] = biological target: T6, SNTB1, Q13884
T6 sequence (Q13884 107-205, limits assumed, looked up): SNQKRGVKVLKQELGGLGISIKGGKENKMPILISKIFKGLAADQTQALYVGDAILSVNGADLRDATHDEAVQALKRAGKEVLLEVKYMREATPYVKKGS

[9] = biological target: NHERF4_4, Q86UT5
[10] = biological target: DLG5_1, Q8TDM6
[11] = biological target: DLG1_2, Q12959
[12] = biological target: Inadl_10, Q8NI35
[13] = biological target: MAGI2_5, Q86UL8
[14] = biological target: NHERF4_1, Q86UT5-2
[15] = biological target: GRIP2_3, Q9C0E4
[16] = biological target: T7, DVL3, Q92997
T7 sequence (Q92997 244-331, limits assumed, looked up): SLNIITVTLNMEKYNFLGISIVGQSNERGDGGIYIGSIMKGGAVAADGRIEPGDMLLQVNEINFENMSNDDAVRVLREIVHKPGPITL

[17] = biological target: T8, RHPN1, Q8TCX5
T8 sequence (Q8TCX5 508-602, limits assumed, looked up): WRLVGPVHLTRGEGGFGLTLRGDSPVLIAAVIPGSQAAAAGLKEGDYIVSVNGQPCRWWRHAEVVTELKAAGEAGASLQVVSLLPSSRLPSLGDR

[18] = biological target: Inadl_8, Q8NI35
[19] = biological target: ARHGEF12, Q9NZN5-2
[20] = biological target: T9, GRIP1_2, Q9Y3R0
T9 sequence (Q9Y3R0 145-248, limits assumed, looked up): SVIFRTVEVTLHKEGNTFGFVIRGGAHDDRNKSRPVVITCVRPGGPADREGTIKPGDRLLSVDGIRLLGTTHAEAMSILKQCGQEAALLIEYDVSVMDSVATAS

[21] = biological target: T10, SNTG1, Q9NSN8
T10 sequence (Q9NSN8 52-150, limits assumed, looked up): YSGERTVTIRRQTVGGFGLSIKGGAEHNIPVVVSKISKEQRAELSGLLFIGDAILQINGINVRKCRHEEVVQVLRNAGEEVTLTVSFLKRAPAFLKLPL

[22] = biological target: DLG2_3, Q15700
[23] = biological target: TJP2_1, Q9UDY2
[24] = biological target: MAST2, Q6P0Q8
[25] = biological target: T11, LIN7C, Q9NUP9
T11 sequence (Q9NUP9 88-185, limits assumed, looked up): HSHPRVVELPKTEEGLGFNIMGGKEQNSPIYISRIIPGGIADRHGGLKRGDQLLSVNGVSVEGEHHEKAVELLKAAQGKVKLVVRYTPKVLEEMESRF

[26] = biological target: IL16_1, Q14005
[27] = plain residues with an end cap or a label only (N-terminal biotin on a linker: ttds)
[28] = plain residues with an end cap or a label only (N-terminal biotin on a linker: ahx)

Inadl_8, Q8NI35, sequence (Q8NI35 1425-1530): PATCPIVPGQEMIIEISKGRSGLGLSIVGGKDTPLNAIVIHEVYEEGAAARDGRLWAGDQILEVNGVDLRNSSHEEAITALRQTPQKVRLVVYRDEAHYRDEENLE
Inadl_10, Q8NI35, sequence (Q8NI35 1673-1763): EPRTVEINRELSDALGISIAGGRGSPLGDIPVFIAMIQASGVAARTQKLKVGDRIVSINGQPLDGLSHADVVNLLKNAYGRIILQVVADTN
MAGI2_5, Q86UL8, sequence (Q86UL8 915-1017): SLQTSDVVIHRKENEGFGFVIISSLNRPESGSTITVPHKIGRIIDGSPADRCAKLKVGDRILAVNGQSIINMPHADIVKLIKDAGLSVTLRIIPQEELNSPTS
ARHGEF12, Q9NZN5-2, sequence (Q9NZN5 other isoform, or with tags, fused parts or gaps): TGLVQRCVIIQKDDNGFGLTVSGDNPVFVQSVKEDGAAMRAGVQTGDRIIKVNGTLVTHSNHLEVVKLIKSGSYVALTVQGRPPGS
IL16_1, Q14005, sequence (Q14005 210-306): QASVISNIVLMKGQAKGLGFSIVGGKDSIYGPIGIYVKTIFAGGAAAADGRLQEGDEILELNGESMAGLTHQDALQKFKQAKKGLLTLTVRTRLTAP
NHERF4_4, Q86UT5, sequence (Q86UT5 464-550): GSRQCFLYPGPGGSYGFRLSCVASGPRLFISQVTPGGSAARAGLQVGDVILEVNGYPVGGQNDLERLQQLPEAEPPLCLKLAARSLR
DLG5_1, Q8TDM6, sequence (Q8TDM6 617-713): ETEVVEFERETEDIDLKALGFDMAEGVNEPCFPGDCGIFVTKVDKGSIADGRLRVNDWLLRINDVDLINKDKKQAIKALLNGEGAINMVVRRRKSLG
TJP2_1, Q9UDY2, sequence (Q9UDY2 24-128): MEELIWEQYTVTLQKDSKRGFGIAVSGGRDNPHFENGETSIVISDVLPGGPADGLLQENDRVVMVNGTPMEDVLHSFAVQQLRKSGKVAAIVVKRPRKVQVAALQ
GRIP2_3, Q9C0E4, sequence (Q9C0E4 238-339): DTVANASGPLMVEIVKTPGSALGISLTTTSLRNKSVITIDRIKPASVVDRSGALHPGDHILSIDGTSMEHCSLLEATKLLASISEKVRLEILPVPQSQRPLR
NHERF4_1, Q86UT5-2, sequence (Q86UT5 other isoform, or with tags, fused parts or gaps): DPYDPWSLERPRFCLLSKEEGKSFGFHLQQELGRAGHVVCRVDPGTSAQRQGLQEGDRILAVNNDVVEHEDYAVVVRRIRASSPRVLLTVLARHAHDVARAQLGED
MAGI2_2, Q86UL8, sequence (Q86UL8 410-522): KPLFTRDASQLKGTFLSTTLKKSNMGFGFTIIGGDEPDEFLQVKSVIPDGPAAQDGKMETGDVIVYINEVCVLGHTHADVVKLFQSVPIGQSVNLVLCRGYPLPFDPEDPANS
LIMK2, P53671, sequence (P53671 143-248): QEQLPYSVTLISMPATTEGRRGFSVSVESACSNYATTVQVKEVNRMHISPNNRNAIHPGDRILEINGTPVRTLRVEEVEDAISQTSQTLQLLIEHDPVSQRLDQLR
MAST2, Q6P0Q8, sequence (Q6P0Q8 1099-1202): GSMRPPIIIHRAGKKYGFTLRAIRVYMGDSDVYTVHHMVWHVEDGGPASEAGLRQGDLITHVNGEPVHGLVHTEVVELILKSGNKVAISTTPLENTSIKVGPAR
DLG1_2, Q12959, sequence (Q12959 314-412): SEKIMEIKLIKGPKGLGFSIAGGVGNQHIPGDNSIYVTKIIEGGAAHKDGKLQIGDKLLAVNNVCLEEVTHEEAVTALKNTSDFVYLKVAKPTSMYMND

## RLQRRRETQV [HPV18-E6, P06463]
[1]; [27]
  pKd: below the threshold
[2]; [27]
  pKd: 5.16
[3]; [27]
  pKd: 4.67
[4]; [27]
  pKd: below the threshold
[5]; [27]
  pKd: below the threshold
[6]; [27]
  pKd: below the threshold
[7]; [27]
  pKd: 4.7
[8]; [27]
  pKd: 5.23
[9]; [27]
  pKd: below the threshold
[10]; [27]
  pKd: below the threshold
[11]; [27]
  pKd: 5.78
[12]; [27]
  pKd: below the threshold
[13]; [27]
  pKd: 3.78
[14]; [27]
  pKd: below the threshold
[15]; [27]
  pKd: below the threshold
[16]; [27]
  pKd: below the threshold
[17]; [27]
  pKd: 3.63
[18]; [27]
  pKd: 3.32
[19]; [27]
  pKd: 3.91
[20]; [27]
  pKd: below the threshold
[21]; [27]
  pKd: 3.93
[22]; [27]
  pKd: 5.06
[23]; [27]
  pKd: 3.89
[24]; [27]
  pKd: 4.78
[25]; [27]
  pKd: 4.17
[26]; [27]
  pKd: below the threshold

## RLPKIKETTV [FRMPD4, Q14CM0]
[1]; [27]
  pKd: below the threshold
[2]; [27]
  pKd: 4.73
[3]; [27]
  pKd: 4.57
[4]; [27]
  pKd: below the threshold
[5]; [27]
  pKd: below the threshold
[6]; [27]
  pKd: below the threshold
[7]; [27]
  pKd: 6.66
[8]; [27]
  pKd: 5.17
[9]; [27]
  pKd: below the threshold
[10]; [27]
  pKd: below the threshold
[11]; [27]
  pKd: 6.06
[12]; [27]
  pKd: below the threshold
[13]; [27]
  pKd: 3.9
[14]; [27]
  pKd: below the threshold
[15]; [27]
  pKd: below the threshold
[16]; [27]
  pKd: 3.43
[17]; [27]
  pKd: 4.19
[18]; [27]
  pKd: 3.98
[19]; [27]
  pKd: 4.23
[20]; [27]
  pKd: below the threshold
[21]; [27]
  pKd: 5.02
[22]; [27]
  pKd: 5.15
[23]; [27]
  pKd: below the threshold
[24]; [27]
  pKd: 4.93
[25]; [27]
  pKd: 5.29
[26]; [27]
  pKd: 4.07

## GYDWGPATDL [TJP3, O95049]
[1]; [28]
  pKd: below the threshold
[2]; [28]
  pKd: below the threshold
[3]; [28]
  pKd: 4.39
[4]; [28]
  pKd: below the threshold
[5]; [28]
  pKd: below the threshold
[6]; [28]
  pKd: below the threshold
[7]; [28]
  pKd: 4.07
[8]; [28]
  pKd: 4.08
[9]; [28]
  pKd: below the threshold
[10]; [28]
  pKd: below the threshold
[11]; [28]
  pKd: 3.61
[12]; [28]
  pKd: 3.62
[13]; [28]
  pKd: below the threshold
[14]; [28]
  pKd: 3.72
[15]; [28]
  pKd: below the threshold
[16]; [28]
  pKd: below the threshold
[17]; [28]
  pKd: 5.36
[18]; [28]
  pKd: 3.49
[19]; [28]
  pKd: 4.66
[20]; [28]
  pKd: below the threshold
[21]; [28]
  pKd: 4.33
[22]; [28]
  pKd: 3.52
[23]; [28]
  pKd: below the threshold
[24]; [28]
  pKd: 5.77
[25]; [28]
  pKd: 3.71
[26]; [28]
  pKd: below the threshold
